Paper PMC7094413

Target: SARS-CoV nucleocapsid protein C-terminal domain (residues 248–365) (SARS-CoV TW1 strain)
Test: NMR structure

Question: Which stoichiometry N does the source give for “SARS-CoV nucleocapsid protein C-terminal domain (residues 248–365) (domain or fragment)” here?
Answer: 2
